Data: article PMC10368727, “Sequestration of histidine kinases by non-cognate response regulators establishes a threshold level of stimulation for bacterial two-component signaling” (Nature Communications, 2023)

T1: phosphorylated, GFP-tagged HK MtrB (cytosolic catalytic domain) (M. tuberculosis, UniProt P9WGK9 234-567)
T1 construct: also called MtrB~P; P~MtrB-GFP
T1 sequence: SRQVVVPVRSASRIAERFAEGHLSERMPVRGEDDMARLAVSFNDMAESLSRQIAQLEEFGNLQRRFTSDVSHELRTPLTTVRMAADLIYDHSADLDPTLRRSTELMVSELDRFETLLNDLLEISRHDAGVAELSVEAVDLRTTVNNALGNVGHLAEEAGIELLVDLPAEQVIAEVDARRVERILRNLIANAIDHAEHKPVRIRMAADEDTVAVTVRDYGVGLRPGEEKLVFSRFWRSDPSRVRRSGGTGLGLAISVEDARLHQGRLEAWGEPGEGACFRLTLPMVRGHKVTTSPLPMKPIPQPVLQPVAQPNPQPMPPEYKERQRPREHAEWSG


Molecular target: T1, phosphorylated, GFP-tagged HK MtrB …
Assay: MST
Conditions: both partners purified

Row | Binder | Kd
1 | MtrA^D56N, phosphor-defective mutant of MtrA (natural protein) MDTMRQRILVVDDDASLAEMLTIVLRGEGFDTAVIGDGTQALTAVRELRPDLVLLNLMLPGMNGIDVCRVLRADSGVPIVMLTAKTDTVDVVLGLESGADDYIMKPFKPKELVARVRARLRRNDDEPAEMLSIADVEIDVPAHKVTRNGEQISLTPLEFDLLVALARKPRQVFTRDVLLEQVWGYRHPADTRLVNVHVQRLRAKVEKDPENPTVVLTVRGVGYKAGPP | 371 ± 130 nM
2 | NarL^D61N, phosphor-defective mutant of NarL (natural protein) MSNPQPEKVRVVVGDDHPLFREGVVRALSLSGSVNVVGEADDGAAALELIKAHLPDVALLNYRMPGMDGAQVAAAVRSYELPTRVLLISAHDEPAIVYQALQQGAAGFLLKDSTRTEIVKAVLDCAKGRDVVAPSLVGGLAGEIRQRAAPVAPVLSAREREVLNRIACGQSIPAIAAELYVAPSTVKTHVQRLYEKLGVSDRAAAVAEAMRQRLLD | 78 ± 13 nM
